According to PMC4273445 (eLife, 2014):

Key:
Test in all cases: SPR
[1] = target: fHbp 1.P10 (N. meningitidis) (UniProt E6MV22)
[2] = target: fHbp 1.P13 (N. meningitidis) (UniProt E6MV22)
[3] = target: fHbp 1.P15 (N. meningitidis) (UniProt E6MV22)
[4] = target: fHbp 1.P276 (N. meningitidis) (UniProt E6MV22)
[5] = target: fHbp 1.P37 (N. meningitidis) (UniProt E6MV22)
[6] = target: fHbp 1.P5 (N. meningitidis) (UniProt E6MV22)
[7] = target: fHbp 1.P74 (N. meningitidis) (UniProt E6MV22)
[8] = target: fHbp 1.P78 (N. meningitidis) (UniProt E6MV22)
[9] = target: fHbp 2.P19 (N. meningitidis) (UniProt E6MV22)
[10] = target: fHbp 2.P22 (N. meningitidis) (UniProt E6MV22)
[11] = target: fHbp 2.P25 (N. meningitidis) (UniProt E6MV22)
[12] = target: fHbp 3.P30 (N. meningitidis) (UniProt E6MV22)
[13] = target: fHbp 3.P47 (N. meningitidis) (UniProt E6MV22)
[14] = target: fHbp 3.P84 (N. meningitidis) (UniProt E6MV22)
[15] = target: fHbp V1.1 Asp150 to Ala (N. meningitidis)
[16] = target: fHbp V1.1 His203 to Ala (N. meningitidis)
[17] = target: fHbp V1.1 His248 to Ala (N. meningitidis)
[18] = target: fHbp V1.1 Ile147 to Ala (N. meningitidis)
[19] = target: fHbp V1.1 Ile154 to Ala (N. meningitidis)
[20] = target: fHbp V1.1 Ile179 to Ala (N. meningitidis)
[21] = target: fHbp V1.1 Ile196 to Ala (N. meningitidis)
[22] = target: fHbp V1.1 Lys107 to Ala (N. meningitidis)
[23] = target: fHbp V1.1 Lys306 to Ala (N. meningitidis)
[24] = target: fHbp V1.1 Phe194 to Ala (N. meningitidis)
[25] = target: fHbp V1.1 Ser288 to Ala (N. meningitidis)
[26] = target: fHbp V1.1 Val149 to Ala (N. meningitidis)
[27] = target: fHbp V2.21 Ala (at V1 Pro265) to Pro (N. meningitidis)
[28] = target: fHbp V2.21 Asn (at V1 Gln180) to Ala (N. meningitidis)
[29] = target: fHbp V2.21 Asp (at V1 Asp150) to Ala (N. meningitidis)
[30] = target: fHbp V2.21 Gln (at V1 Gln103) to Ala (N. meningitidis)
[31] = target: fHbp V2.21 Glu (at V1 Glu109) to Ala (N. meningitidis)
[32] = target: fHbp V2.21 Glu (at V1 Glu157) to Ala (N. meningitidis)
[33] = target: fHbp V2.21 Ile (at V1 Ile273) to Ala (N. meningitidis)
[34] = target: fHbp V2.21 Leu (at V1 Phe174) to Ala (N. meningitidis)
[35] = target: fHbp V2.21 Lys (at V1 Lys268) to Ala (N. meningitidis)
[36] = target: fHbp V2.21 Pro (at V1 Ser182) to Ala (N. meningitidis)
[37] = target: fHbp V2.21 Ser (at V1 Gln193) to Ala (N. meningitidis)
[38] = target: fHbp V2.21 Thr (at V1 Glu304) to Ala (N. meningitidis)
[39] = target: fHbp V3.28 Asp (at V1 Gln103) to Ala (N. meningitidis)
[40] = target: fHbp V3.28 Gln (at V1 Arg145) to Ala (N. meningitidis)
[41] = target: fHbp V3.28 Gly (at V1 Glu109) to Ala (N. meningitidis)
[42] = target: fHbp V3.28 His (at V1 His203) to Ala (N. meningitidis)
[43] = target: fHbp V3.28 His (at V1 His248) to Ala (N. meningitidis)
[44] = target: fHbp V3.28 Leu (at V1 Leu156) to Ala (N. meningitidis)
[45] = target: fHbp V3.28 Leu (at V1 Phe174) to Ala (N. meningitidis)
[46] = target: fHbp V3.28 Leu (at V1 Ser274) to Ala (N. meningitidis)
[47] = target: fHbp V3.28 Phe (at V1 Phe194) to Ala (N. meningitidis)
[48] = target: fHbp V3.28 Thr (at V1 Glu304) to Ala (N. meningitidis)
[49] = target: fHbp V3.28 Val (at V1 Ile311) to Ala (N. meningitidis)

Chain of CFH67, CCP domains 6 and 7 of complement factor H (P08603 321-443): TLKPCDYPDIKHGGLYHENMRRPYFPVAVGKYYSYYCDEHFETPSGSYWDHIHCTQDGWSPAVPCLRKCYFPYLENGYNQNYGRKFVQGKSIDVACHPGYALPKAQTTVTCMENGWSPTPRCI

Substance: CFH67, CCP domains 6 and 7 of complement factor H (from UniProt P08603 321-443) (domain or fragment)
- Kd [1]: 15.2 nM
- Kd [2]: 10.7 nM
- Kd [3]: 11.7 nM
- Kd [4]: 8.9 nM
- Kd [5]: 1.11 nM
- Kd [6]: 4.8 nM
- Kd [7]: 5.14 nM
- Kd [8]: 10.5 nM
- Kd [9]: 1.91 nM
- Kd [10]: 2.13 nM
- Kd [11]: 0.346 nM
- Kd [12]: 1.97 nM
- Kd [13]: 0.514 nM
- Kd [14]: 2.64 nM
- Kd [15]: 6.11 nM
- Kd [16]: 1.8 nM
- Kd [17]: 3.36 nM
- Kd [18]: 17.3 nM
- Kd [19]: 7.69 nM
- Kd [20]: 8.06 nM
- Kd [21]: 1.07 nM
- Kd [22]: 9.59 nM
- Kd [23]: 2.94 nM
- Kd [24]: 5.04 nM
- Kd [25]: 2.87 nM
- Kd [26]: 0.00928 µM
- Kd [27]: 3.7 nM
- Kd [28]: 6.21 nM
- Kd [29]: 3.24 nM
- Kd [30]: 6.01 nM
- Kd [31]: 2.34 nM
- Kd [32]: 0.401 nM
- Kd [33]: 0.231 nM
- Kd [34]: 0.157 nM
- Kd [35]: 3.28 nM
- Kd [36]: 7.98 nM
- Kd [37]: 3.95 nM
- Kd [38]: 19.2 nM
- Kd [39]: 2.7 nM
- Kd [40]: 0.621 nM
- Kd [41]: 2.82 nM
- Kd [42]: 2.33 nM
- Kd [43]: 2.97 nM
- Kd [44]: 28.8 nM
- Kd [45]: 4.8 nM
- Kd [46]: 18.5 nM
- Kd [47]: 4.25 nM
- Kd [48]: 11.7 nM
- Kd [49]: 30.3 nM

Substance: CFHR3_(12), the first two (N-terminal) CCP domains of complement factor H-related 3 (from UniProt Q02985 19-330) (domain or fragment)
- Kd [1]: 119 nM
- Kd [2]: 54.3 nM
- Kd [3]: 56.4 nM
- Kd [4]: 37.9 nM
- Kd [5]: 7.52 nM
- Kd [6]: 55.2 nM
- Kd [7]: 56.9 nM
- Kd [8]: 80 nM
- Kd [9]: 2.11 nM
- Kd [10]: 2.58 nM
- Kd [11]: 1.61 nM
- Kd [12]: 2.93 nM
- Kd [13]: 1.64 nM
- Kd [14]: 6.08 nM
- Kd [15]: 118 nM
- Kd [16]: 32.6 nM
- Kd [17]: 82.5 nM
- Kd [18]: 174 nM
- Kd [19]: 147 nM
- Kd [20]: 1270 nM
- Kd [21]: 35.2 nM
- Kd [22]: 174 nM
- Kd [23]: 57.7 nM
- Kd [24]: 160 nM
- Kd [25]: 57.5 nM
- Kd [26]: 6.54 µM
- Kd [27]: 4.12 nM
- Kd [28]: 5.87 nM
- Kd [29]: 3.64 nM
- Kd [30]: 4.01 nM
- Kd [31]: 4.62 nM
- Kd [32]: 2.74 nM
- Kd [33]: 0.605 nM
- Kd [34]: 3.44 nM
- Kd [35]: 3.25 nM
- Kd [36]: 5.84 nM
- Kd [37]: 3.38 nM
- Kd [38]: 16.3 nM
- Kd [39]: 2.81 nM
- Kd [40]: 0.434 nM
- Kd [41]: 1.96 nM
- Kd [42]: 3.47 nM
- Kd [43]: 3.61 nM
- Kd [44]: 51.9 nM
- Kd [45]: 4.78 nM
- Kd [46]: 20.3 nM
- Kd [47]: 5.15 nM
- Kd [48]: 17.5 nM
- Kd [49]: 36.3 nM
